According to patent US7465453B2, “Polypeptide fragments of CKLF1” (Peking University, priority 2004, dated 2008):

Assays:
[1] = target: T1, CCR5 (Homo sapiens, UniProt P51681); test: Chemotaxis assay (48-well microchemotaxis chamber) of HEK293 cells transfected with CCR5; assay type: cell-based; details: for chemotaxis induced after PTX pretreatment: CCR5-transfected HEK293 cells treated with 100 ng/ml PTX at 37° C. for 30 min; for desensitization of the receptor to subsequent stimulation with RANTES, C27 or C19 (chemotaxis): HEK293/CCR5, pretreatment 1 mM RANTES or 2 μg/ml C27 or C19, 37° C., 30 min
T1 construct: The cDNA fragments covering the open reading frames for various chemokine receptors were obtained as follows; expressed in transfected cells; host or cells: HEK293 (transient, electroporation)
Method: (§1) HEK293 cells were grown in RPMI 1640 supplemented with 10% heat-inactivated FBS, penicillin (100 U/ml) and streptomycin (100 μg/ml). Every 4×10^6 HEK293 cells in 400 μl were transiently transfected by electroporation with 15 μg of the expression plasmid at 120 V, 20 ms using an electric pulse generator (Electro Square Porator ECM 830, BTX, San Diego, Calif.), and calcium mobilization assay and chemotaxis assays were performed 48 hours later.
The chemotaxis assay was performed using a 48-well microchemotaxis chamber (Neutroprobe; Cabin John, Md., U.S.A.). Chemoattractants were diluted in HEPES-buffered RPMI 1640 medium supplemented with 0.1% BSA and placed in the lower wells (28 μl/well). HEK293 cells transfected with pcDI-CCR4, -CCR5 were resuspended in the same medium at 2×10^6 cells/ml and added to the upper wells (50 μl/well), which were separated from the lower wells by a polyvinylpyrrolidone-free polycarbonate filter with 8-μm pores. The chamber was incubated for 2 hours at 37° C. in 5% CO2 and 95% air. Filters were removed from the chamber, washed, fixed, and stained with Three Step Stain Set. Cells that migrated were counted in 5 randomly selected high power fields (400×) per well. The chemotactic index (CI) was calculated from the number of cells that migrated to the control. Significant chemotaxis was defined as CI>2. […]

[2] = target: T2, CCR4 (Homo sapiens, UniProt P51679); test: Calcium flux assay in CCR4-transfected HEK293 cells; assay type: cell-based; details: for calcium flux: CCR4-transfected HEK293 cells, 167 nM C27 or C19, 100 nM TARC; for desensitization of transfectants to subsequent TARC treatment: CCR4 transfectants, first 167 nM peptide, then 100 nM TARC
T2 construct: The cDNA fragments covering the open reading frames for various chemokine receptors were obtained as follows; expressed in transfected cells; host or cells: HEK293 (transient, electroporation)
T2 sequence (P51679 1-360): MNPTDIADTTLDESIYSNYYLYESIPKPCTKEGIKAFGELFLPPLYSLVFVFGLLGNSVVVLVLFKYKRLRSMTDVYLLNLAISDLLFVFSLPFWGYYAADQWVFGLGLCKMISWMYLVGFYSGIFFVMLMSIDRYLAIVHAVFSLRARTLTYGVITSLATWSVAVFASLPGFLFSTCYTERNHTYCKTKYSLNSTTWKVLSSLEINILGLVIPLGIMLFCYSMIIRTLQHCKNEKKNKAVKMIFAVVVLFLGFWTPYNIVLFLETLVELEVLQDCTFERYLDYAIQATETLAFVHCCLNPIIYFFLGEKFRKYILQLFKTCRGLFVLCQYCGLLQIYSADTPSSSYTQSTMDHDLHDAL
Excerpt: The cDNA fragments covering the open reading frames for various chemokine receptors were obtained as follows. CCR4, CCR5 and CCR6 receptors were cloned from a K562 cell cDNA library by polymerase chain reaction (PCR). The primers were designed using the sequences from the following GenBank™ submissions: CCR4 (NM_005508.2), CCR5 (NM_000579) and CCR6 (AY242126). The fragments were cloned into an expression vector pcDI (modified in our lab from pcDNA3 vector (Invitrogen), in which the part between BgI II-Kpn I was replaced by the fragment of pCl vector (Promega) digested with BgI II-Kpn I) or pEGFP-N1 vector (CLONTECH) for efficient expression in HEK293 cells. The sequences coding receptors in expression plasmids were confirmed by DNA sequencing, which is consistent with the sequence submitted in GenBank™.
as §1
HEK293 cells transfected with pcDI-CCR4 or pcDI-CCR5 were grown in specialized glass-bottom microwell dishes (MatTek Corporation, U.S.A.) and loaded with 10 μM fluo-3/AM in HEPES-buffered saline at 37° C. for 1 hour in the dark. The cells were rinsed with HEPES-buffered saline and stimulated with 167 nM secreted CKLF1 peptides and 100 nM TARC or RANTES, respectively. Fluorescence was monitored at 488 nm (excitation wavelength) and 530 nm (emission wavelength) every 5 second using a Leica TCS-NT confocal fluorescence microscope with a 40× oil immersion lens (Wetzler, Heidelberg, Germany). The measurement was completed at room temperature and each field of cells was selected at random. Images were collected at 5 second intervals for 405 seconds. The images were analyzed for relative fluorescence using Leica confocal software. The relative fluorescence was determined using Microsoft Excel. All calcium flux assays were performed in the presence of extracellular calcium (in the absence of EDTA or EGTA) in the assay buffers. Therefore, both intracellular calcium release and extracellular calcium influx were analyzed.

T1 sequence (P51681 whole entry, the tested form may be a part): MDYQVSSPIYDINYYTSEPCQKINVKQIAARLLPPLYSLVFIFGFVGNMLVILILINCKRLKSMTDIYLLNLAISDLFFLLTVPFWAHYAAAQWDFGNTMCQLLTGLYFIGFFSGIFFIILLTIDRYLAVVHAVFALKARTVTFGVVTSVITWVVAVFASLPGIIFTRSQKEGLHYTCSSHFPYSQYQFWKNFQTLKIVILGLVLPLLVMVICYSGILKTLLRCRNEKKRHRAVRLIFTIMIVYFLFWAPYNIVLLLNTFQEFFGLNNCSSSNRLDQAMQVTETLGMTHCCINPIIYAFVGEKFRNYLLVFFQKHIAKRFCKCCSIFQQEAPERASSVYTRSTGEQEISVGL

Substance	migration (chemotaxis) of transfected cells ([1]; CCR5-transfected HEK293 cells)	chemotaxis induced after PTX pretreatment [1]	desensitization of the receptor to subsequent stimulation with RANTES, C27 or C19 (chemotaxis) [1]	calcium flux [2]	desensitization of transfectants to subsequent TARC treatment [2]
ALIYRKL LFNPSGPYQKKPVHEKKEVL (ALIYRKLLFNPSGPYQKKPVHEKKEVL; listed as Homo sapiens) [C27]	could induce migration	completely abolished by PTX	could desensitize the receptor	could induce calcium flux	could desensitize
FNPSGPYQKKPVHEKKEVL (listed as Homo sapiens) [C19]		completely abolished by PTX	could desensitize the receptor	could induce calcium flux	could desensitize
